T1: APG293 (human CD95L-T4) (human)
T1 chain: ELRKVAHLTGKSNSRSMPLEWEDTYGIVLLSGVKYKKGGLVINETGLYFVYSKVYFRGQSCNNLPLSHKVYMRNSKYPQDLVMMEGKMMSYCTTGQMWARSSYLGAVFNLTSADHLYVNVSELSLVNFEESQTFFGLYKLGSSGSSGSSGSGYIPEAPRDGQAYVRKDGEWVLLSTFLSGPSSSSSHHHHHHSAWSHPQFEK


Biological target: T1, APG293 (human CD95L-T4)
Assay: cell-based or functional assay

Row | Binder | EC50, Assay 1: antagonism of CD95L-T4-induced apoptosis on Jurkat A3 cells [µg/mL] | EC50, Assay 2: antagonism of CD95L-T4-induced apoptosis on Jurkat A3 cells [µg/mL] | EC50, Assay 5: antagonism of CD95L-T4-induced apoptosis on Jurkat A3 cells [µg/mL] | EC50, Assay 6: antagonism of CD95L-T4-induced apoptosis on Jurkat A3 cells [µg/mL] | EC50, Mean: antagonism of CD95L-T4-induced apoptosis on Jurkat A3 cells [µg/mL] | EC50, Assay 3: antagonism of CD95L-T4-induced apoptosis on Jurkat A3 cells [µg/mL] | EC50, Assay 4: antagonism of CD95L-T4-induced apoptosis on Jurkat A3 cells [µg/mL]
1 | scFv-minibody SEQ ID 38 (scFv) scFv: EVQLVESGGGLVQPGGSLRLSCAASGFSFSSGYDMCWVRQAPGKGLEWVACIDTDNDATYYASWAKGRFTISKDSSKNTLYLQMNSLRAEDTAVYYCARTHGDYVAFKLWGQGTLVTVSGGGSGGGSGGGSGGGSDIQMTQSPSSLSASVGDRVTITCQSSQSVYKNNDLSWYQQKPGKAPKLLIYQASKLASGVPSRFSGSGSGTDFTLTISSLQPEDFATYYCAGGYTASIYAFGQGTKVEIKGSGSSGQPREPQVYTLPPSREEMTKNQVSLTCLVKGFYPSDIAVEWESQGSPENNYKTTPPVLDSDGSFFLYSKLTVDKSRWQQGNVFSCSVMHEALHNHYTQKSLSLSPGSSSSSSAWSHPQFEK | 0.118 | 0.114 | 0.0957 | 0.111 | 0.11 | – | –
2 | scFv-minibody SEQ ID 39 (scFv) scFv: EVQLVESGGGLVQPGGSLRLSCAASGFSFSSGYDMCWVRQAPGKGLEWVACIDTDNDATYYADSVKGRFTISKDSSKNTLYLQMNSLRAEDTAVYYCARTHGDYVAFKLWGQGTLVTVSGGGSGGGSGGGSGGGSDIQMTQSPSSLSASVGDRVTITCQSSQSVYKNNDLSWYQQKPGKAPKLLIYQASKLASGVPSRFSGSGSGTDFTLTISSLQPEDFATYYCAGGYTASIYAFGQGTKVEIKGSGSSGQPREPQVYTLPPSREEMTKNQVSLTCLVKGFYPSDIAVEWESQGSPENNYKTTPPVLDSDGSFFLYSKLTVDKSRWQQGNVFSCSVMHEALHNHYTQKSLSLSPGSSSSSSAWSHPQFEK | 0.0994 | 0.105 | 0.0865 | 0.0834 | 0.093 | – | –
3 | scFv-minibody SEQ ID 40 (scFv) scFv: EVQLVESGGGLVQPGGSLRLSCAASGFSFSSGYDMSWVRQAPGKGLEWVSAIDTDNDATYYADSVKGRFTISKDSSKNTLYLQMNSLRAEDTAVYYCARTHGDYVAFKLWGQGTLVTVSGGGSGGGSGGGSGGGSDIQMTQSPSSLSASVGDRVTITCQSSQSVYKNNDLSWYQQKPGKAPKLLIYQASKLASGVPSRFSGSGSGTDFTLTISSLQPEDFATYYCAGGYTASIYAFGQGTKVEIKGSGSSGQPREPQVYTLPPSREEMTKNQVSLTCLVKGFYPSDIAVEWESQGSPENNYKTTPPVLDSDGSFFLYSKLTVDKSRWQQGNVFSCSVMHEALHNHYTQKSLSLSPGSSSSSSAWSHPQFEK | 0.532 | 0.591 | 0.701 | 0.571 | 0.599 | – | –
4 | APG101 (Fc fusion, UniProt P25445 26-173, looked up, not shown: a dimerising Fc or GST) QVTDINSKGLELRKTVTTVETQNLEGLHHDGQFCHKPCPPGERKARDCTVNGDEPDCVPCQEGKEYTDKAHFSSKCRRCRLCDEGHGLEVEINCTRTQNTKCRCKPNFFCNSTVCEHCDPCTKCEHGIIKECTLTSNTKCKEEGSRSN | 0.774 | 0.789 | – | – | 0.746 | 0.707 | 0.714
5 | scFv-minibody SEQ ID 48 (scFv) scFv: QSLEESGGDLVKPGGTLTLTCTTSGFSFSDHYWMCWVRQAPGKGLEWIACIYTADSDSYYASWAKGRFTISKTSSTTVTLQMTSLTAADTATYFCARNGAYAGGPYGDLWGPGTLVTVSGGGSGGGSGGGSGGGSDIVMTQTPSSVEAAVGGTVTIKCQASQSIRTSLVWYQQKPGQPPKLLIYKASDLPSGVPSRFKGSGSGTQFTLTISDLESADAATYYCQSYDFRDTINNGHSFGGGTEVVVKGSGSSGQPREPQVYTLPPSREEMTKNQVSLTCLVKGFYPSDIAVEWESQGSPENNYKTTPPVLDSDGSFFLYSKLTVDKSRWQQGNVFSCSVMHEALHNHYTQKSLSLSPGSSSSSSAWSHPQFEK | – | – | 0.0844 | 0.0975 | 0.097 | 0.116 | 0.0908
6 | scFv-minibody SEQ ID 37 (scFv) scFv: QSLEESGGDLVKPGASLTLTCTASGFSFSSGYDMCWVRQAPGKGLEWIACIDTDNDATYYASWAKGRFTISKPSSTTVLLQITSLTAADTATYFCATTHGDYVAFKLWGPGTLVTVSGGGSGGGSGGGSGGGSQVLTQTASSVSAAVGGTVTINCQSSQSVYKNNDLSWYQQKPRQPPKLLIYQASKLASGVPSRFKGSGSGTQFTLTIGDLESDDGATYYCAGGYTASIYAFGGGTEVVGSGSSGQPREPQVYTLPPSREEMTKNQVSLTCLVKGFYPSDIAVEWESQGSPENNYKTTPPVLDSDGSFFLYSKLTVDKSRWQQGNVFSCSVMHEALHNHYTQKSLSLSPGSSSSSSAWSHPQFEK | 0.124 | 0.117 | 0.113 | 0.118 | 0.118 | – | –
7 | scFv-minibody SEQ ID 49 (scFv) scFv: EVQLVESGGGLVQPGGSLRLSCAASGFSFSDHYWMCWVRQAPGKGLEWVACIYTADSDSYYASWAKGRFTISKDSSKNTLYLQMNSLRAEDTAVYYCARNGAYAGGPYGDLWGQGTLVTVSGGGSGGGSGGGSGGGSDIQMTQSPSSLSASVGDRVTITCKASQSIRTSLVWYQQKPGKAPKLLIYKASDLPSGVPSRFSGSGSGTDFTLTISSLQPEDFATYYCQSYDFRDTINNGHSFGQGTKVEIKGSGSSGQPREPQVYTLPPSREEMTKNQVSLTCLVKGFYPSDIAVEWESQGSPENNYKTTPPVLDSDGSFFLYSKLTVDKSRWQQGNVFSCSVMHEALHNHYTQKSLSLSPGSSSSSSAWSHPQFEK | – | – | 0.117 | 0.127 | 0.14 | 0.172 | 0.144
8 | scFv-minibody SEQ ID 50 (scFv) scFv: EVQLVESGGGLVQPGGSLRLSCAASGFSFSDHYWMCWVRQAPGKGLEWVACIYTADSDSYYADSVKGRFTISKDSSKNTLYLQMNSLRAEDTAVYYCARNGAYAGGPYGDLWGQGTLVTVSGGGSGGGSGGGSGGGSDIQMTQSPSSLSASVGDRVTITCKASQSIRTSLVWYQQKPGKAPKLLIYKASDLPSGVPSRFSGSGSGTDFTLTISSLQPEDFATYYCQSYDFRDTINNGHSFGQGTKVEIKGSGSSGQPREPQVYTLPPSREEMTKNQVSLTCLVKGFYPSDIAVEWESQGSPENNYKTTPPVLDSDGSFFLYSKLTVDKSRWQQGNVFSCSVMHEALHNHYTQKSLSLSPGSSSSSSAWSHPQFEK | – | – | 0.128 | 0.14 | 0.143 | 0.169 | 0.136
9 | scFv-minibody SEQ ID 51 (scFv) scFv: EVQLVESGGGLVQPGGSLRLSCAASGFSFSDHYWMSWVRQAPGKGLEWVSAIYTADSDSYYADSVKGRFTISKDSSKNTLYLQMNSLRAEDTAVYYCARNGAYAGGPYGDLWGQGTLVTVSGGGSGGGSGGGSGGGSDIQMTQSPSSLSASVGDRVTITCKASQSIRTSLVWYQQKPGKAPKLLIYKASDLPSGVPSRFSGSGSGTDFTLTISSLQPEDFATYYCQSYDFRDTINNGHSFGQGTKVEIKGSGSSGQPREPQVYTLPPSREEMTKNQVSLTCLVKGFYPSDIAVEWESQGSPENNYKTTPPVLDSDGSFFLYSKLTVDKSRWQQGNVFSCSVMHEALHNHYTQKSLSLSPGSSSSSSAWSHPQFEK | – | – | 1.48 | 1.74 | 1.76 | 1.55 | 2.26

From patent publication US20180208664A1 (APOGENIX, published 2018)
